Experimental data published in paper PMC11482615, “Novel Peptides LFLLP and DFFL from Jack Bean Protein Hydrolysates Suppress the Inflammatory Response in Lipopolysaccharide-Stimulated RAW 264.7 Cells” (Foods, 2024).
Residues, ends and D or L forms follow the SMILES beside them. *: point of attachment. FITC = O=C1OC2(c3ccc(O)cc3Oc3cc(O)ccc32)c2ccc(NC(=S)*)cc21

System: RAW 264.7 cells
Assay: Visualization of FITC-conjugated peptides in RAW 264.7 cells (fluorescence microscopy)
Type: cell-based, mouse
Settings: 200 μmol/L FITC-conjugated peptide, 24 h; for incorporation into RAW 264.7 cells (fluorescence signal): intensity of the two peptides roughly comparable; for cellular localization in RAW 264.7 cells: non-colocalization with DAPI
Method: To visualize the cellular localization of peptides, LFLLP and DFFL were conjugated with fluorescein isothiocyanate isomer-I (FITC-I, Dojindo). Briefly, the LFLLP and DFFL were mixed with FITC-I in a carbonate buffer at pH 9.5 for 2 h. To purify the FITC-conjugated peptides, the mixture was applied to a Sep-Pak C18 cartridge. RAW 264.7 cells were seeded in a 6-well plate (0.5 × 10^4 cells/cm^2). After 3 days, the cells were incubated with FITC-conjugated peptides (LFLLP and DFFL, 200 µmol/L) for 24 h. The cells were then washed with cold PBS and fixed with 4% PFA for 10 min. Lastly, the cells were washed three times with PBS and mounted on microscope slides using a mounting fluid containing DAPI, and the fluorescence signals were visualized using a Leica DMI6000 B fluorescence microscope (Leica).

Row | SMILES | incorporation into RAW 264.7 cells (fluorescence signal) | cellular localization in RAW 264.7 cells
1 | CC(C)C[C@H](NC(=O)[C@H](Cc1ccccc1)NC(=O)[C@H](CC(C)C)NC(=S)Nc1ccc2c(c1)C(=O)OC21c2ccc(O)cc2Oc2cc(O)ccc21)C(=O)N[C@@H](CC(C)C)C(=O)N1CCC[C@H]1C(=O)O [FITC-conjugated LFLLP] ({FITC}-LFLLP-OH) | observed in most cells | predominantly localized in the cytosols
2 | CC(C)C[C@H](NC(=O)[C@H](Cc1ccccc1)NC(=O)[C@H](Cc1ccccc1)NC(=O)[C@H](CC(=O)O)NC(=S)Nc1ccc2c(c1)C(=O)OC21c2ccc(O)cc2Oc2cc(O)ccc21)C(=O)O [FITC-conjugated DFFL] ({FITC}-DFFL-OH) | observed in most cells | predominantly localized in the cytosols
